We go through 17 molecules from patent US6558922B1, “Methods and compositions for production of floral scent compounds” (Purdue Research Foundation, priority 1999, dated 2003).

As a reminder, the Ki is the equilibrium dissociation constant of an inhibitor or competing ligand from its target. The low end stands for higher affinity, the high end for lower affinity. The term Km denotes the concentration of substrate that gives half-maximal velocity.

Series [1] deals with BAMT. Put plainly: Effectors: BAMT enzyme assay with cations in assay buffer. It counts as biochemical, Antirrhinum majus. As to conditions: for Stimulation of BAMT activity (factor): cation at 5 mM in assay buffer.
The target in series [2] is T1, BAMT (Antirrhinum majus, UniProt Q9FYZ9).
T1 construct: The enzyme activity was purified from upper and lower petal lobes of 5- to 10-day-old snapdragon flowers; from tissue; host or cells: upper and lower petal lobes of 5- to 10-day-old snapdragon flowers
T1 sequence (Q9FYZ9 1-364): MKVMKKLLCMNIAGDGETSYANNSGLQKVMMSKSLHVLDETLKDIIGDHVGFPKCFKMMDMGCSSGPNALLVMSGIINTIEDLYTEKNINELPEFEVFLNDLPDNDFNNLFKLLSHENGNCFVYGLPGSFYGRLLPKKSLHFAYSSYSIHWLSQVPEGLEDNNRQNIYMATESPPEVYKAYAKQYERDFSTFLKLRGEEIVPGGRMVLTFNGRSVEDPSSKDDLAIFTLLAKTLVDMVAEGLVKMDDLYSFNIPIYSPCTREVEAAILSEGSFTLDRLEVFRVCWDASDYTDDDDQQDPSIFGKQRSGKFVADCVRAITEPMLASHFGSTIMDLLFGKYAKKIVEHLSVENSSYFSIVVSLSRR
Put plainly: BAMT enzyme assay, substrate specificity of plant-purified BAMT (fraction after MonoQ). It counts as biochemical. The settings on record: plant BAMT purified through MonoQ, compound tested as substrate instead of benzoic acid. An excerpt: The raw data (counts per minute) were converted to picokatals (picomoles of product produced per second) based on the specific activity of the substrate and efficiency of counting. Controls included assays with boiled protein extracts and without substrate, and background radioactivity produced in such assays was subtracted from all of the results.
The enzyme activity was purified from upper and lower petal lobes of 5- to 10-day-old snapdragon flowers in a series of chromatographic steps involving a DEAE anion exchange column (DE53, Whatman International, Maidstone, England), phenyl Sepharose 6FF (low sub, level of phenyl substitution 20 μmole per ml gel) column (Pharmacia Biotech, Piscataway, N.J.), and another anion exchange column, MonoQ, on Pharmacia's fast-performance liquid chromatography system. A complete description of the purification protocol is described in Example 7.

The target of series [3] is T2, E. coli BAMT protein (Antirrhinum majus, UniProt Q9FYZ9).
T2 sequence (Q9FYZ9 1-364): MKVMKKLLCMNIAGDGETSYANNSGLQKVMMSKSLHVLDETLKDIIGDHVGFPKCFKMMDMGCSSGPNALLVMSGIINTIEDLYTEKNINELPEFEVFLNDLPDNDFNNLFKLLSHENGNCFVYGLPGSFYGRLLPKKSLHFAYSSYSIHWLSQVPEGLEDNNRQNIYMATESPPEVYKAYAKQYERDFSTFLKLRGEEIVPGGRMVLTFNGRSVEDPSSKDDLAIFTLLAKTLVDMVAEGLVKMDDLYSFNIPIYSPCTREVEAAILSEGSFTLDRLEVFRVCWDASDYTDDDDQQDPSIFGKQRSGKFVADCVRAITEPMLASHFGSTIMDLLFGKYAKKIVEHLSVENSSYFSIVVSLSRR
The series is described as follows: Product inhibition kinetics of methylation reaction by SAH.
Text: Linear regressions were fitted to the data in double-reciprocal plots. Replots of the data were used to determine the kinetic parameters.

Series [4] concerns BAMT. Put plainly: Kinetic properties of purified plant and E. coli expressed BAMT proteins. It counts as biochemical, Antirrhinum majus. The settings on record: purified protein; for KmSAM: Table 4.
The target of series [5] is T1, BAMT. Put plainly: Specific activity of BAMT purified from snapdragon petals. It counts as biochemical. The settings on record: from 25 g fresh petal material after Mono-Q. Here is the method:
After the enzyme was loaded, the column was washed with 3 mL 300 mM KCl in buffer A and eluted with a linear reverse gradient (4 mL) from 300 mM KCl in buffer A to water followed by an additional 11 mL of water. Fractions of 0.7 ml were collected into tubes containing 100 μL 1 M KCl, 100 μL glycerol, 100 μL of 0.5 M Bis-Tris-HCl, pH 6.9 and 1 μL of 14 M β-mercaptoethanol. […] The column was previously equilibrate with 100 mM KCl in buffer A. After loading the protein onto the column, the column was washed with 100 mM KCl in buffer A and the bound protein was eluted using a 10 mL linear (100-400 mM) gradient of KCl in buffer A followed by an additional 5 mL of buffer A containing 400 mM KCl, at flow rate of 0.25 mL/min. The enzyme consistently eluted at about 360 mM KCl. Fractions (0.5 mL each) were collected and protein content and purity were examined by SDS-PAGE gel electrophoresis followed by staining of the gel with Coomassie Brilliant Blue. Fractions which had the largest amount of pure protein were used for N-terminal sequencing, internal peptide sequencing, and initial enzyme characterization.

For series [6], the system named is BAMT.
Experimental: The optimum pH for BAMT activity was determined using two buffer systems. Reactions were carried out in 50 mM Tris-HCl buffer with pH ranging from 6.5 to 9.0 and in 50 mM Tris/Na phosphate/Na citrate buffer with pH ranging from 4.0 to 9.5. Final results are an average of four independent assays.
The target of series [7] is T1, BAMT. The series is described as follows: BAMT activity with different substrates in lysates of E. coli expressing BAMT cDNA. It counts as biochemical. As to conditions: lysates of E. coli cells expressing BAMT. The text has this: The raw data (counts per minute) were converted to picokatals (picomoles of product produced per second) based on the specific activity of the substrate and efficiency of counting.
(Yamaguchi et al., 1996).

Series [8] deals with T3, SAMT (Clarkia breweri, UniProt Q9SPV4).
T3 sequence (Q9SPV4 1-359): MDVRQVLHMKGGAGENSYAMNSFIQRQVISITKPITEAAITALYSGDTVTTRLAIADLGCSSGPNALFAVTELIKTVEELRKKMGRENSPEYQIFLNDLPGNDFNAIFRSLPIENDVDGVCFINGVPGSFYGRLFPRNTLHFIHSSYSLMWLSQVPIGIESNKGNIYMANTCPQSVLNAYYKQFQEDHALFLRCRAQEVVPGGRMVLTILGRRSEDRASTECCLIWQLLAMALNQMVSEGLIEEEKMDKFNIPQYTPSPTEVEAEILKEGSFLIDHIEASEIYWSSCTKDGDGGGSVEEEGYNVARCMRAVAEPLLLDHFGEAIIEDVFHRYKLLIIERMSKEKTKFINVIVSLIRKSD
As to conditions: Ross et al., 1999, cited from earlier work.

Series [9] deals with the molecule itself. Put plainly: gel filtration on Superdex 200-HR (100 kDa native) against SDS-PAGE (49 kDa subunit). Background: In gel filtration, larger molecules generally elute earlier.
The test system of series [10] is BAMT. As to conditions: read-out: Km of plant BAMT protein for benzoic acid; Murfitt, et al., 2000; cited from earlier work.
The test system of series [11] is BAMT. The series is described as follows: Specific activity of plant BAMT expressed in E. coli BL21 (DE3) cells.
Experimental: The E. coli.-expressed BAMT protein was purified by nickel-based affinity chromatography (2.5 ml bed volume) according to the manufacturer's protocol (Novagen, Inc).
[12] abbreviates: read-out: KmBA (Km for benzoic acid).

Read-outs that look alike come from different tables or passages of the source.

As for `N` [NH4^+], the “Stimulation of BAMT activity (factor)” value in series [1] came out at 2.

Take `O=C(O)/C=C/c1ccccc1O` [2-coumaric acid]: in [2], the “BAMT activity with compound as substrate” value is reported as “no activity was detected”.

In the case of `[Mg+2]` [Mg^2+], in series [1] (5 mM Mg2+ in the assay reaction), the “Effect on BAMT activity” value is on record as “not affected”.

With `Nc1ncnc2c1ncn2[C@@H]1O[C@H](CSCC[C@H](N)C(=O)O)[C@@H](O)[C@H]1O` [SAH, S-adenosyl-L- homocysteine], the Ki came out at 14 µM in [3] (Ki value of SAH for BA, noncompetitive with respect to BA, SAM fixed at 150 μM) and 7 µM in series [3] (Ki value of SAH for SAM, competitive with respect to SAM, BA fixed at 4 mM).

Consider `O=C(O)c1ccc(O)cc1` [4-hydroxybenzoic acid], for which, in [2], the “BAMT activity with compound as substrate” value is “no activity was detected”.

With “S-adenosyl-L-methionine:benzoic acid carboxyl methyltransferase [BAMT]”, the values for the Michaelis constant (Km) in series [4] (read-out: Km for SAM) and in series [4] (setting [12]) were 28 µM and 1100 µM, respectively. Besides, the “Specific activity of purified BAMT protein” value in series [5] stood at 327 pkat/mg protein. Besides, in [6] (at both pH 6.5 and 8.5), the “Percent of maximum activity” value is recorded as 65%. The “Enzyme activity as percent of the optimal value” in series [6] (at pH 5.5 and 9.5) is on record as “about 50%”.

As to `OCc1ccccc1` [benzyl alcohol], the “BAMT activity with compound as substrate” value in [2] is reported as “no activity was detected”; in [2] (listed as benzylalcohol), “no activity”.

As to `O=C(O)/C=C/c1cccc(O)c1` [3-coumaric acid], the “BAMT activity with compound as substrate” value in [2] is on record as “no activity was detected”.

For the molecule `O=C(O)/C=C/c1ccc(O)cc1` [4-coumaric acid], the “BAMT activity with compound as substrate” value in series [2] is on record as “no activity was detected”.

On to `O=C(O)/C=C/c1ccccc1` [trans-cinnamic acid], for which the “BAMT activity with compound as substrate” value in series [2] is on record as “no activity was detected”; in series [7] it was “no activity”.

Consider `O=C(O)c1cccc(O)c1` [3-hydroxybenzoic acid], for which the “BAMT activity with compound as substrate” value in [2] is recorded as “no activity was detected”.

`O=C(O)c1ccccc1O` [salicylic acid]: the “BAMT activity with compound as substrate” value in series [2] is “no activity was detected”; in [7] it was “no activity”.

Turning to `[K+]` [K^+], the “Stimulation of BAMT activity (factor)” value in [1] is 2.

B1: SAM:salicylic acid carboxyl methyl transferase (protein, listed as Clarkia breweri)
chain: MDVRQVLHMKGGAGENSYAMNSFIQRQVISITKPITEAAITALYSGDTVTTRLAIADLGCSSGPNALFAVTELIKTVEELRKKMGRENSPEYQIFLNDLPGNDFNAIFRSLPIENDVDGVCFINGVPGSFYGRLFPRNTLHFIHSSYSLMWLSQVPIGIESNKGNIYMANTCPQSVLNAYYKQFQEDHALFLRCRAQEVVPGGRMVLTILGRRSEDRASTECCLIWQLLAMALNQMVSEGLIEEEKMDKFNIPQYTPSPTEVEAEILKEGSFLIDHIEASEIYWSSCTKDGDGGGSVEEEGYNVARCMRAVAEPLLLDHFGEAIIEDVFHRYKLLIIERMSKEKTKFINVIVSLIRKSD
notes: salicylic acid carboxyl methyl transferase from C. breweri
B1: the Km is 190 µM in series [8] (read-out: Km value for BA), 24 µM in series [8] (read-out: Km value for SA) and 9 µM in [8] (read-out: Km value for SAM).

B2: S-adenosyl-L-methionine:benzoic acid carboxyl methyltransferase (BAMT) from snapdragon (Antirrhinum majus) petals (enzyme)
chain: MKVMKKLLCMNIAGDGETSYANNSGLQKVMMSKSLHVLDETLKDIIGDHVGFPKCFKMMDMGCSSGPNALLVMSGIINTIEDLYTEKNINELPEFEVFLNDLPDNDFNNLFKLLSHENGNCFVYGLPGSFYGRLLPKKSLHFAYSSYSIHWLSQVPEGLEDNNRQNIYMATESPPEVYKAYAKQYERDFSTFLKLRGEEIVPGGRMVLTFNGRSVEDPSSKDDLAIFTLLAKTLVDMVAEGLVKMDDLYSFNIPIYSPCTREVEAAILSEGSFTLDRLEVFRVCWDASDYTDDDDQQDPSIFGKQRSGKFVADCVRAITEPMLASHFGSTIMDLLFGKYAKKIVEHLSVENSSYFSIVVSLSRR
notes: Native protein from upper and lower petal lobes; The native enzyme is reported as a homodimer (100 kDa by gel filtration, 49 kDa on SDS-PAGE); In the immunoblots it was the denatured monomer after SDS-PAGE; also called BAMT protein; plant BAMT
As to B2, the binding result in series [9] is “binds”.

B3: Plant: BAMT protein purified from upper and lower petal lobes of snapdragon flowers (protein)
chain: MKVMKKLLCMNIAGDGETSYANNSGLQKVMMSKSLHVLDETLKDIIGDHVGFPKCFKMMDMGCSSGPNALLVMSGIINTIEDLYTEKNINELPEFEVFLNDLPDNDFNNLFKLLSHENGNCFVYGLPGSFYGRLLPKKSLHFAYSSYSIHWLSQVPEGLEDNNRQNIYMATESPPEVYKAYAKQYERDFSTFLKLRGEEIVPGGRMVLTFNGRSVEDPSSKDDLAIFTLLAKTLVDMVAEGLVKMDDLYSFNIPIYSPCTREVEAAILSEGSFTLDRLEVFRVCWDASDYTDDDDQQDPSIFGKQRSGKFVADCVRAITEPMLASHFGSTIMDLLFGKYAKKIVEHLSVENSSYFSIVVSLSRR
Turning to B3, in series [4], the Vmax is listed as 220 pkat/mg, the “kcat (turnover number of enzyme)” value was determined as 0.02 s⁻¹ and the KmSAM came to 28 μm. Moreover, in series [4] (read-out: Km for SAM), the Km was 28 µM. Besides, the Km in series [4] (setting [12]) was determined as 1100 µM. The Km in series [10] was 1000 µM.

B4: E. coli Met1: E. coli expressed snapdragon BAMT starting with the first methionine codon, N-terminal 6×His tag (protein, UniProt Q9FYZ9 1-364, looked up)
chain: MKVMKKLLCMNIAGDGETSYANNSGLQKVMMSKSLHVLDETLKDIIGDHVGFPKCFKMMDMGCSSGPNALLVMSGIINTIEDLYTEKNINELPEFEVFLNDLPDNDFNNLFKLLSHENGNCFVYGLPGSFYGRLLPKKSLHFAYSSYSIHWLSQVPEGLEDNNRQNIYMATESPPEVYKAYAKQYERDFSTFLKLRGEEIVPGGRMVLTFNGRSVEDPSSKDDLAIFTLLAKTLVDMVAEGLVKMDDLYSFNIPIYSPCTREVEAAILSEGSFTLDRLEVFRVCWDASDYTDDDDQQDPSIFGKQRSGKFVADCVRAITEPMLASHFGSTIMDLLFGKYAKKIVEHLSVENSSYFSIVVSLSRR
modifications: full-length N-terminal 6xHis tag
Regarding B4, in series [4], the Vmax is 300 pkat/mg, the “kcat (turnover number of enzyme)” value came out at 0.03 s⁻¹ and the KmSAM is recorded as 87 μm. The Km in series [4] (read-out: Km for SAM) was determined as 87 µM. Besides, the Michaelis constant (Km) in series [4] (setting [12]) is 1500 µM. For the same molecule, the “Specific activity, crude lysates” value in [11] (E. coli BL21 (DE3) after IPTG induction) stood at 9 pkat/mg protein. In series [11] (purified from E. coli), the “Specific activity of purified recombinant enzyme” value is 135 pcat/mg protein. For the same molecule, in series [11] (purified from E. coli on nickel column), the “Specific activity, purified protein” value was 135 pkat/mg protein.
